In the supplement of paper PMC12042874:
± gives the uncertainty stated by the source.

Experiment: amyloid nucleation score (Sup35N fusion, yeast selection) (log enrichment); library NNK3; higher = more nucleation; inactive = no reads after selection
Procedure, shortened: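 On medium lacking adenine and uracil, psi-negative yeast expressing peptides of 20 random codons fused to Sup35N were grown 7 days at 30°C after a 24-hour induction with 100 μM copper sulfate. Illumina sequencing of input and output plasmid inserts gave the reads, and sequences under 100 input reads were excluded. The nucleation score is the DiMSum log enrichment of output over input reads, centred on the mode score of non-aggregating sequences.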

FNVGFLKWCFSMVGQGVDLH
amyloid nucleation score: inactive

FNVLMGTSYFAISEIASVPA
amyloid nucleation score: inactive

FPARLYGYMFLKNSTLRFSR
amyloid nucleation score: inactive

FPENIVYGHEGLD
amyloid nucleation score: inactive

FPMDL
amyloid nucleation score: inactive

FPSKCCANKSSYLGWTSLCW
amyloid nucleation score: inactive

FPVSMENFKYA
amyloid nucleation score: inactive

FQCFFRVLVV
amyloid nucleation score: inactive

FQCRYLKHDDKDNYFKGNGK
amyloid nucleation score: inactive

FQFWGAGGDI
amyloid nucleation score: inactive

FQRFYYLCWPSIWNMFQGGG
amyloid nucleation score: inactive

FQRVPNWVSIILTGYRGNTC
amyloid nucleation score: inactive

FQVLN
amyloid nucleation score: inactive

FQWITSIRSSKKMGCY
amyloid nucleation score: inactive

FRACIVLYNTVHVVHFNISR
amyloid nucleation score: 0.565 ± 0.46

FRADSSVGVIKVCLGRLCRW
amyloid nucleation score: inactive

FRAYWLYISALAHQIITMLK
amyloid nucleation score: inactive

FRCTRGSIVWSFYFVRNLMI
amyloid nucleation score: inactive

FRKTGFSFVFLIVDEYFICN
amyloid nucleation score: inactive

FRNLSDVLVRLFPVQLLSYP
amyloid nucleation score: inactive

FRNRLGSTDNQWV
amyloid nucleation score: inactive

FRRLHQGLWKMYS
amyloid nucleation score: inactive

FRSTGRKQELLLHSRKKQLP
amyloid nucleation score: inactive

FSDCFSRLVYPRGNNLV
amyloid nucleation score: inactive

FSFITLMVTLSSVKIGEIWW
amyloid nucleation score: inactive

FSGCWRWNNQ
amyloid nucleation score: inactive

FSGRMVSRIDIIYRRKSVMS
amyloid nucleation score: 1.28 ± 0.076

FSGRYGTRLPLYSGRFKWFI
amyloid nucleation score: inactive

FSGSTSLCLMMRYTSTVR
amyloid nucleation score: 0.359 ± 0.25

FSILCKLVLRQLKNGSFYGF
amyloid nucleation score: -0.329 ± 0.77

FSIPPFTRTCLKNGLHYSVR
amyloid nucleation score: -0.759 ± 0.88

FSIQSRCAVGWLSIGSVTAR
amyloid nucleation score: inactive

FSRGVCTSYLSVRYGLCSTE
amyloid nucleation score: inactive

FSRTRVTLV
amyloid nucleation score: inactive

FSSKDRLGSHSRYYFYCATL
amyloid nucleation score: inactive

FSSRDWNYSSRMVKIRNGRF
amyloid nucleation score: inactive

FSSRHVTPCIRINFNIVSCS
amyloid nucleation score: inactive

FSTWNKRRMLYRHSGLFRQS
amyloid nucleation score: inactive

FSVFPLFVTGFQDILWVDLL
amyloid nucleation score: inactive

FSYEMFNAMGYFPIASLCSF
amyloid nucleation score: inactive

FTESVASYELAQVVSRSMLC
amyloid nucleation score: inactive

FTFCTCAKSAWTGLGLQGKI
amyloid nucleation score: inactive

FTFWWDRLQNWKHIGFFGKV
amyloid nucleation score: 1.06 ± 0.12

FTIGNTA
amyloid nucleation score: inactive

FTKLYELSDMHISYTRS
amyloid nucleation score: inactive

FTKSREWGFMDKPAINWVSC
amyloid nucleation score: inactive

FTLARAMPLGYSQGIMKSRG
amyloid nucleation score: inactive

FTMMCVYMSWQSGSQRTVTI
amyloid nucleation score: inactive

FTMNQGSDVEVFLSSMF
amyloid nucleation score: inactive

FTNFCS
amyloid nucleation score: inactive

FTSYRSEPTIYALLCLGLSL
amyloid nucleation score: 2.08 ± 0.093

FTVYCF
amyloid nucleation score: inactive

FTYVNSHECWLVKDMVAYFL
amyloid nucleation score: 3 ± 0.073

FVAADSPGVSSFKAN
amyloid nucleation score: inactive

FVASDLLFGVRDQSVFSLSQ
amyloid nucleation score: inactive

FVCFIKLRLVDSRIVTNFQR
amyloid nucleation score: inactive

FVCKMVMIRRGDTWKVSKVV
amyloid nucleation score: inactive

FVDLSSIDYVF
amyloid nucleation score: inactive

FVEISRSGLLWFDF
amyloid nucleation score: inactive

FVERMVLVLV
amyloid nucleation score: inactive

FVIFW
amyloid nucleation score: inactive

FVISYELWAVSERNWSFEMR
amyloid nucleation score: inactive

FVLFGGWLPRVQRLSLGTGR
amyloid nucleation score: inactive

FVLQFSSGCYFGPD
amyloid nucleation score: inactive

FVLVGL
amyloid nucleation score: inactive

FVMTIM
amyloid nucleation score: inactive

FVNSRVLWMIKIC
amyloid nucleation score: inactive

FVPNVRLTDLWRANKGIVSH
amyloid nucleation score: 0.404 ± 0.38

FVQSGLFFMCDGSCGLLRVF
amyloid nucleation score: inactive

FVRIHVGSSTGIF
amyloid nucleation score: inactive

FVSGDSNTIIQPMAYNMDSK
amyloid nucleation score: -0.282 ± 0.42

FVSVDGWSESMWLASVVLSE
amyloid nucleation score: inactive

FVTIRGVRRTCNPFKGINYG
amyloid nucleation score: inactive

FVVFCRNPNSGLGNCTVSCD
amyloid nucleation score: inactive

FVVFIRDIICMVNNFMLMRM
amyloid nucleation score: inactive

FVVRIKYTGSDLRLFRMVSF
amyloid nucleation score: inactive

FVVSKLYMPRWASLLLCWRL
amyloid nucleation score: inactive

FVYILGTMMNRRGFDPWIGD
amyloid nucleation score: 0.631 ± 0.32

FWGVSDGFMC
amyloid nucleation score: -0.141 ± 0.96

FWIWIWRIWYDGNEDNLDHF
amyloid nucleation score: inactive

FWKAFRFTDSVFPIKHPNLS
amyloid nucleation score: inactive

FWLGGVDLAPKVGKQTMNLA
amyloid nucleation score: inactive

FWRLRWYMRDGFSDYSGGEY
amyloid nucleation score: 0.719 ± 0.13

FWSPGYTIVTVTLNGLVPW
amyloid nucleation score: inactive

FWSSLAVQRACKCMGGFCDL
amyloid nucleation score: inactive

FWSWNVWLRSGSPAISFHK
amyloid nucleation score: inactive

FWTKFC
amyloid nucleation score: inactive

FYDLFN
amyloid nucleation score: inactive

FYFVGKYWRGDEYFDFRLAV
amyloid nucleation score: inactive

FYGHQVNISGDNGVRTRPEV
amyloid nucleation score: inactive

FYHNNYINANHVWRKSY
amyloid nucleation score: inactive

FYICYLNPNQQLFVLN
amyloid nucleation score: 1.27 ± 0.1

FYILCHHKDCNIGHPILGGK
amyloid nucleation score: inactive

FYLYLDHVKVNWSRS
amyloid nucleation score: 0.989 ± 0.15

FYNVRF
amyloid nucleation score: inactive

FYSLWRNRYNNSNQEWDIRW
amyloid nucleation score: inactive

FYSMSLVSFCFYGDLYLDNG
amyloid nucleation score: 2.76 ± 0.077

FYSNPNIVGFLMLLVYILEP
amyloid nucleation score: inactive

FYVLNMNDLTSGLDMHVKS
amyloid nucleation score: inactive

FYYWVGFCAGKAEDFRDLLC
amyloid nucleation score: inactive

FYYYDLYYGRVFRDSPYSMS
amyloid nucleation score: inactive

GAFSEDFRESGLFLNVREGE
amyloid nucleation score: inactive

GAGYADICPTAFHMPRWVFN
amyloid nucleation score: inactive

GAIWERLDIREM
amyloid nucleation score: inactive

GAMCIRWEG
amyloid nucleation score: inactive

GAPGLMFVFLKKSVFLYSYL
amyloid nucleation score: inactive

GASGCLSWHFGLIV
amyloid nucleation score: inactive

GASNMFHDPELSG
amyloid nucleation score: inactive

GAVRMVETTMYFLFTMPSGS
amyloid nucleation score: 0.359 ± 0.24

GCGSYSDQGRCSTSVSVC
amyloid nucleation score: inactive

GCHFLH
amyloid nucleation score: inactive

GCIIGCQLDKYGPAMPSARE
amyloid nucleation score: 0.632 ± 0.3

GCIMEEKFLRMDFDVVSEYN
amyloid nucleation score: inactive

GCNRVIYKRI
amyloid nucleation score: -0.609 ± 1.2

GCVRGCTATWRMLCAGSKCC
amyloid nucleation score: 0.71 ± 0.33

GCVSGRHDNTFRDYD
amyloid nucleation score: inactive

GDEWGSFLECFITITSSIND
amyloid nucleation score: inactive

GDFYASGSPVKFVRVGMDEC
amyloid nucleation score: inactive

GDHSDWRKRGSLLNGVVLCV
amyloid nucleation score: -0.5 ± 1.5

GDILGHRRHSVVRSRRQSLT
amyloid nucleation score: inactive

GDLSS
amyloid nucleation score: inactive

GDNHSQD
amyloid nucleation score: 0.37 ± 0.16

GDQFQAMHVWNLPDVDYYVH
amyloid nucleation score: inactive

GDSCCDRLYLFFGVWCVRAV
amyloid nucleation score: inactive

GDSIRSWNRGAVEIA
amyloid nucleation score: -0.377 ± 1.5

GDSLGGTYYLLRSFFCCRDL
amyloid nucleation score: inactive

GDSLMMYQQDWISEVLICLA
amyloid nucleation score: inactive

GDVIMCFNFRTFLSTITPGS
amyloid nucleation score: 1.96 ± 0.092

GEILSGITTLGVYYSYVWHL
amyloid nucleation score: inactive

GESAKDVFGSLCRRLISIQL
amyloid nucleation score: inactive

GESNVFILSAFNFNALVGFS
amyloid nucleation score: inactive

GEVNTAFYSWPAMPVLADYG
amyloid nucleation score: inactive

GFGFRAVMPMLYFEYYGQR
amyloid nucleation score: 0.793 ± 0.12

GFRMGLTHCHSALKEFRFCH
amyloid nucleation score: inactive

GFSYSWNLFILFGQQICWIW
amyloid nucleation score: inactive

GFTVMDPIV
amyloid nucleation score: inactive

GFVFQVYPQFVWVPPTTSRQ
amyloid nucleation score: 1.2 ± 0.18

GFYLVKSSMSWVANWCGKHT
amyloid nucleation score: inactive

GGCDL
amyloid nucleation score: inactive

GGEGHSEVRRKTPGITCACI
amyloid nucleation score: inactive

GGFRISHSIC
amyloid nucleation score: inactive

GGKSVLLTFFQWLP
amyloid nucleation score: 0.56 ± 0.2

GGMYKNWGCWLELLGKTLPW
amyloid nucleation score: inactive

GGQGIYMY
amyloid nucleation score: inactive

GGRDNTEIDVMTWRRRPGKS
amyloid nucleation score: inactive

GGSLGHSRLSKDVSVEESAW
amyloid nucleation score: inactive

GGVRPVKYGSVWVYRFWDQC
amyloid nucleation score: inactive

GGVTFYMYCIRLVNDQQGHR
amyloid nucleation score: 1.21 ± 0.098

GGYQAQTWL
amyloid nucleation score: inactive

GHISGTESCNI
amyloid nucleation score: inactive

GHPGNSAEADKCGHRQRRP
amyloid nucleation score: inactive

GHSHCMNSVLHSNMSLNTVI
amyloid nucleation score: inactive

GHVSTCPNDGAAALSCLELF
amyloid nucleation score: inactive

GICHSSRCWGTSENGNWLRI
amyloid nucleation score: inactive

GIFEFKLNSLNSNERGLRAG
amyloid nucleation score: inactive

GIGLCVGYE
amyloid nucleation score: inactive

GILCVEMSVTSLGLIIETYF
amyloid nucleation score: inactive
